Substrate in data set [1]: O=[N+]([O-])c1ccc(O[C@H]2O[C@H](CO)[C@@H](O)[C@H](O)[C@H]2O)cc1
The data set is described as follows: purified protein. Particulars: 37 °C, 50 mM buffer at or near pH optimum (6.0-7.0).

Substrate in data set [2]: O=[N+]([O-])c1ccc(O[C@H]2OC[C@@H](O)[C@H](O)[C@H]2O)cc1
The data set is described as follows: 4-nitrophenolate release, A410. The class given is biochemical, Bacteroides ovatus. Particulars: 37 °C, 50 mM buffer at or near pH optimum (6.0-7.0).

Substrate in the data set “HPLC”: OC[C@H]1O[C@@H](O[C@H]2[C@@H](OC[C@H]3O[C@@H](O[C@H]4[C@H](O)[C@@H](O)[C@H](O[C@H]5[C@H](O)[C@@H](O)C(O)O[C@@H]5CO)O[C@@H]4CO[C@H]4OC[C@@H](O)[C@H](O)[C@H]4O[C@@H]4O[C@H](CO)[C@H](O)[C@H](O)[C@H]4O)[C@H](O)[C@@H](O)[C@@H]3O[C@@H]3O[C@H](CO[C@H]4OC[C@@H](O)[C@H](O)[C@H]4O)[C@@H](O)[C@H](O)[C@H]3O)OC[C@@H](O)[C@@H]2O)[C@H](O)[C@@H](O)[C@H]1O
Description: HPLC. It counts as biochemical, Bacteroides ovatus. Particulars: 37 °C, 50 mM buffer at or near pH optimum (6.0-7.0).

Substrate in data set [3]: O=[N+]([O-])c1ccc(O[C@@H]2O[C@H](CO)[C@H](O)[C@H](O)[C@H]2O)cc1
The data set is described as follows: purified protein. As to conditions: 37 °C, 50 mM buffer at or near pH optimum (6.0-7.0).

Substrate in data set [4]: O=[N+]([O-])c1ccc(O[C@@H]2O[C@@H](CO)[C@H](O)[C@H]2O)cc1
The data set is described as follows: continuous 4-nitrophenolate release. It counts as biochemical, Bacteroides ovatus. As to conditions: 37 °C, pH 7.0.

Substrate in data set [5]: O=[N+]([O-])c1ccc(O[C@@H]2O[C@H](CO)[C@@H](O[C@@H]3O[C@H](CO)[C@@H](O[C@@H]4O[C@H](CO)[C@@H](O[C@@H]5O[C@H](CO)[C@@H](O)[C@H](O)[C@H]5O)[C@H](O)[C@H]4O)[C@H](O)[C@H]3O)[C@H](O)[C@H]2O)c(Cl)c1
Description: 2-chloro-4-nitrophenolate release, A405, continuous. The class given is biochemical, Bacteroides ovatus. Particulars: 37 °C, 50 mM buffer at or near pH optimum (6.0-7.0).

Substrate in data set [6]: O=[N+]([O-])c1ccc(O[C@@H]2O[C@H](CO)[C@@H](O[C@@H]3O[C@H](CO[C@H]4OC[C@@H](O)[C@H](O)[C@H]4O)[C@@H](O[C@@H]4O[C@H](CO[C@H]5OC[C@@H](O)[C@H](O)[C@H]5O)[C@@H](O[C@@H]5O[C@H](CO[C@H]6OC[C@@H](O)[C@H](O)[C@H]6O)[C@@H](O)[C@H](O)[C@H]5O)[C@H](O)[C@H]4O)[C@H](O)[C@H]3O)[C@H](O)[C@H]2O)c(Cl)c1
Described as above. The class given is biochemical, Bacteroides ovatus. Particulars: 37 °C, 50 mM buffer at or near pH optimum (6.0-7.0).

Substrate in data set [7]: O=[N+]([O-])c1ccc(O[C@@H]2O[C@H](CO)[C@@H](O)[C@H](O)[C@H]2O)cc1
The data set is described as follows: purified protein. Particulars: 37 °C, 50 mM buffer at or near pH optimum (6.0-7.0).

Substrate in data set [8]: O=[N+]([O-])c1ccc(O[C@@H]2O[C@@H](CO)[C@H](O)[C@H]2O)cc1
The data set is described as follows: 4-nitrophenolate release, A410. The class given is biochemical, Bacteroides ovatus. As to conditions: 37 °C, 50 mM buffer at or near pH optimum (6.0-7.0).

Substrate in data set [9]: O=[N+]([O-])c1ccc(O[C@@H]2OC[C@@H](O)[C@H](O)[C@H]2O)cc1
Description: 4-nitrophenolate release, A410. It counts as biochemical, Bacteroides ovatus. Particulars: 37 °C, 50 mM buffer at or near pH optimum (6.0-7.0).

Data on six proteins can be found in publication PMC4282169.

B1: BoGH31A (Bacteroides ovatus ATCC 8483) (protein)
chain: SNKVYEKTGDSVIVKVQHKETGGPRLVRLQVMGDKLIHVSATADSKFADPQSLIVVPQKKQTSFAVVQNGDTITVSTEEVKASVLASTGEVWFTDKNGELILQENKGGGKTFTPIEVEGTKGYTVCQVFESPEDEAFYGLGQHQADEFNYKGKNEELFQYNTKVSVPFVVSNKNYGILLDSYSFCRFGNPNDYSQLNRIFKLYDKTGQEGALTGTYVPKKGETLVRREDSIYFENLKTIENLPKKLPLMGAKVTYEGEIEPAQTGEFKFILYYAGYVKVYLNNEPVVPERWRTAWNPNSYKFAAHLEAGKRVPLKIEWQPDGGQSYCGLRALTPVNPEEQGKQSWWSEMTKQLDYYFMAGENMDDVISGYRSLTGKSPVMPKWAMGFWQSREKYNTQEEMLGALKGFRDRKIPLDNIVLDWNHWPENAWGSHEFDKARFPDPKAMVDSIHAMHARMMISVWPKFYVTTEHFKEFDENGWMYQQSVKDSLKDWVGPGYHYGFYDAYDPDARKLFWKQMYEHYYPLGIDAWWMDASEPNVRDCTDLEYRKALCGPTALGSSTEFFNAYALMNAEAIYDGQRGVDNNKRVFLLTRSGFAGLQRYSTATWSGDIGTRWEDMKAQISAGLNFAMSGIPYWTMDIGGFCVENRYVAGQKQWNATKTENADYKEWRELNTRWYQFGAFVPLYRAHGQYPFREIWEIAPEGHPAYQSVVYYTKLRYNMMPYIYSLAGMTWFDDYTIMRPLVMDFTADAEVNDIGDQFMFGPSFMVSPVYRYGDRSREIYFPQAEGWYDFYSGKFQAGGERKVIEAPYERIPLYVRAGAIIPFGDDIQYTDEKPAEHIRLYIYQGADGEFTLYEDEGVNYNYEQGMYAMIPMKYDEATKTLVIGERQGEFPGMLKERTFTVVTVNKEKAQPFDLNAKGVTVKYNGSEQTLKL
As usually defined, the Km is the substrate concentration at which the rate is half of its maximum. Usually kcat stands for the maximal rate divided by the concentration of active sites. For orientation: kcat/Km means the second-order rate constant that governs catalysis at low substrate concentration. B1: in the data set “purified protein [1]”, the Km was determined as 31.8 ± 5.1 mM, the turnover number (kcat) amounted to 0.071 s⁻¹ and the kcat/Km came out at 2.2 M⁻¹ s⁻¹. For the same protein, in [2], the Michaelis-Menten constant (Km) came out at 7.7 ± 0.273 mM, the kcat was 1.6 ± 0.031 s⁻¹ and the kcat/Km turned out to be 210 M⁻¹ s⁻¹. For the same protein, in “HPLC”, the Km amounted to 0.378 ± 0.075 mM, the kcat is 31 ± 1.9 s⁻¹ and the kcat/Km is 82000 M⁻¹ s⁻¹.

B2: BoGH2A (Bacteroides ovatus ATCC 8483) (protein)
chain: LALGGCLMLLGACSSSSLVSPRERSDFNADWRFHLGDGLQAAQPGFADNDWRVLDLPHDWAIEGDFSQENPSGTGGGALPGGVGWYRKTFSVDKADAGKIFRIEFDGVYMNSEVFINGVSLGVRPYGYISFSYDLTPYLKWDEPNVLAVRVDNAEQPNSRWYSGCGIYRNVWLSKTGPIHVGGWGTYVTTSSVDEKQAVLNLATTLVNESDTNENVTVCSSLQDAEGREVAETRSSGEAEAGKEVVFTQQLTVKQPQLWDIDTPYLYTLVTKVMRNEECMDRYTTPVGIRTFSLDARKGFTLNGRQTKINGVCMHHDLGCLGAAVNTRAIERHLQILKEMGCNGIRCSHNPPAPELLDLCDRMGFIVMDEAFDMWRKKKTAHDYARYFNEWHERDLNDFILRDRNHPSVFMWSIGNEVLEQWSDAKADTLSLEEANLILNFGHSSEMLAKEGEESVNSLLTKKLVSFVKGLDPTRPVTAGCNEPNSGNHLFRSGVLDVIGYNYHNKDIPNVPANFPDKPFIITESNSALMTRGYYRMPSDRMFIWPKRWDKSFADSTFACSSYENCHVPWGNTHEESLKLVRDNDFISGQYVWTGFDYIGEPTPYGWPARSSYFGIVDLAGFPKDVYYLYQSEWTDKQVLHLFPHWNWTPGQEIDMWCYYNQADEVELFVNGKSQGVKRKDLDNLHVAWRVKFEPGTVKVIARESGKVVAEKEICTAGKPAEIRLTPDRSILTADGKDLCFVTVEVLDEKGNLCPDADNLVNFTVQGNGFIAGVDNGNPVSMERFKDEKRKAFYGKCLVVIQNDGKPGKAKLTATSEGLRQAVLKISAEEL
Turning to B2, in the data set “purified protein [3]”, the Km came to 0.087 ± 0.0074 mM, the kcat worked out at 4 s⁻¹ and the kcat/Km is 46000 M⁻¹ s⁻¹.

B3: BoGH43B (Bacteroides ovatus ATCC 8483) (protein)
chain: QKTFRNPIITGMNPDPSICRVGDDFYLVTSTFEYFPGLPVYHSKDLVHWKLIGHALSRPENNPLMGCNASTGGQYAPTLRYHDGTFYVIGTNYGGKGSQGVFYVTAKNPAGPWSDPVWVGNWYVDPSIEFIDGKMYFLSPDNQGSFLLGVMDPETGTFVEALRKVASGLGGSSPEGPHFYKIGDYYYIMSAEGGTGYEHREVIQRSKSPWGPYEPSPVNPVLSNMNCPDHPFQAIGHADLVQLKDGSWWAVCLGIRPVNGKYQHLGRETFLAPVTWDADGWPKVGKDGVVQETYLFPNLPSHVWMEQPVRDDFDQETLGLDWTFIRNPAHSFWSLTEKPGSLRLKGTAINFTTNDSPSFIGRRQAAFNLTASAKVNFIPKVENEEAGLVVRADDKNHYDLLITERNGQRVAMIRKTLKDKVVDTTCKELPATGEVILSITATETTYTFEIKAAHVSAILGTASTRDVSNEVVGGFTGVFIGMYASGNGQANTNPADFDWFDFRCLD
As for B3, in data set [4], the Km turned out to be 6.6 ± 2.3 mM, the kcat worked out at 0.0005 ± 8.1e-05 s⁻¹ and the kcat/Km is 0.076 M⁻¹ s⁻¹.

B4: BoGH5A (Bacteroides ovatus ATCC 8483) (protein)
chain: SNSDEKGGSLEVAQEYRNLEFDARGSRQTIQIDGPAEWHISTSESWCKSSHTIGEGKQYVNITVEANDTQKERTATVTVSASGAPDIIINVKQSLYSVPAYDEYIAPDNTGMRDLTSMQLSALMKAGVNVGNTFEAVIVGNDGSLSGDETCWGNPTPNKVLFEGIKAAGFDVVRIPVAYSHQFEDAATYKIKSAWMDKVEAAVKAALDAGLYVIINIHWEGGWLNHPVDANKEALDERLEAMWKQIALRFRDYDDRLLFAGTNEVNNDDANGAQPTEENYRVQNGFNQVFVNTVRATGGRNHYRHLIVQAYNTDVAKAVAHFTMPLDIVQNRIFLECHYYDPYDFTIMPNDENFKSQWGAAFAGGDVSATGQEGDIEATLSSLNVFINNNVPVIIGEYGPTLRDQLTGEALENHLKSRNDYIEYVVKTCVKNKLVPLYWDAGYTEKLFDRTTGQPHNAASIAAIMKGLN
Regarding B4, in [5], the Km is given as 3.59 ± 1.27 mM, the kcat was 0.12 ± 0.025 s⁻¹ and the kcat/Km was found to be 34 M⁻¹ s⁻¹. Moreover, in [6], the Km amounted to 0.036 ± 0.0027 mM, the kcat worked out at 10.5 ± 0.14 s⁻¹ and the kcat/Km came out at 292000 M⁻¹ s⁻¹.

B5: BoGH3B (Bacteroides ovatus ATCC 8483) (protein)
chain: QTASPVIPTDPAIETHIREWLQKMTLEQKIGQMCEITIDVVSDLETSRKKGFCLSEAMLDTVIGKYKVGSLLNVPLGVAQKKEKWAEAIKQIQEKSMKEIGIPCIYGVDQIHGTTYTLDGTMFPQGINMGATFNRELTRRGAKISAYETKAGCIPWTFAPVVDLGRDPRWARMWENYGEDCYVNAEMGVSAVKGFQGEDPNRIGEYNVAACMKHYMGYGVPVSGKDRTPSSISRSDMREKHFAPFLAAVRQGALSVMVNSGVDNGLPFHANRELLTEWLKEDLNWDGLIVTDWADINNLCTRDHIAATKKEAVKIVINAGIDMSMVPYEVSFCDYLKELVEEGEVSMERIDDAVARVLRLKYRLGLFDHPYWDIKKYDKFGSKEFAAVALQAAEESEVLLKNDGNILPIAKGKKILLTGPNANSMRCLNGGWSYSWQGHVADEYAQAYHTIYEALCEKYGKENIIYEPGVTYASYKNDNWWEENKPETEKPVAAAAQADIIITCIGENSYCETPGNLTDLTLSENQRNLVKALAATGKPIVLVLNQGRPRIINDIVPLAKAVVNIMLPSNYGGDALANLLAGDANFSGKMPFTYPRLINALATYDYKPCENMGQMGGNYNYDSVMDIQWPFGFGLSYTNYKYSNLKVNKPTFNADDELIFTVDVTNTGKVAGKESVLLFSKDLVASSTPDNIRLRNFEKVSLEPGETKTVTLKLKGSDLAFVGYDGKWRLEKGDFKIKCGDQWMDIVCDQTKVWNTPNKNTLHK
B5: in the data set “purified protein [7]”, the Km is listed as 0.155 ± 0.039 mM, the kcat was 1.74 s⁻¹ and the kcat/Km came to 11200 M⁻¹ s⁻¹.

B6: BoGH43A (Bacteroides ovatus ATCC 8483) (protein)
chain: QGYSNPVIPGFHPDPSVCKAGDDYYLVNSSFQYFPGVPLFHSKDLVHWEQIGNCLTRPSQLDLTNANSGSGIFAPTIRYNDGVFYMITTNVSGKGNFLVHTTDPRSEWSEPVWLEQGGIDPSLYFEDGKCFMVSNPDGYINLCEIDPMTGKQLSSSKRIWNGTGGRYAEGPHIYKKDGWYYLLISEGGTELGHKVTIARSRYIDGPYQGNPANPILTHANESGQSSPIQGTGHADLVEGTDGSWWMVCLAYRIMPGTHHTLGRETYLAPVRWDKDAWPVVNSNGTISLKMDVPTLPQQEMKGRPERIDFKEGKLSPEWIHLQNPEAKNYIFTKDGKLRLIATPVTLSDWKSPTFVALRQEHFDMEASAPVVLQKAGVNDEAGISVFMEFHSHYDLFVRQDKDRKRSVGLRYKLGEITHYAKEVSLPTDGEVELVVKSDINYYYFGYKVNGIYHDLGKMNTRYLSTETAGGFTGVVLGLYITSASKDSKAYADFEYFKYKGKPGENK
For the protein B6, in data set [8], the Km came to 0.71 ± 0.03 mM, the catalytic constant (kcat) came out at 0.057 ± 0.001 s⁻¹ and the kcat/Km is 81 M⁻¹ s⁻¹. Further, in data set [9], the Km was determined as 6.58 ± 0.21 mM, the catalytic constant (kcat) came to 0.26 ± 0.005 s⁻¹ and the kcat/Km turned out to be 39 M⁻¹ s⁻¹.
